In patent US20210246178A1 (DEUTSCHES KREBSFORSCHUNGSZENTRUM STIFTUNG DES FFENTLICHEN …, published 2021):

Target: the molecule itself
Experiment: X-ray crystal structure, 1.53 Å

B1: MSBI1.176 Rep protein WH1 domain (residues 1-135) (other)
chain: MSDLIVKDNALMNASYNLALVEQRLILLAIIEARETGKGINANDPLTVHASSYINQFNVERHTAYQALKDACKDLFARQFSYQEKRERGRINITSRWVSQIGYMDDTATVEIIFAPAVVPLITRLEEQFTQYDIE
notes: This entry is one protomer; Two protomers (A and B) form the WH1 homodimer in the crystal, so the self-pair is written as m1 with m1; The construct of residues 1-135 was expressed in E. coli as a His-tagged fusion in modified pMal-c2X and cleaved with HRV-3C protease; also called MSBI1.176 WH1; MSBI1 WH1
- binding result: binds
